Tested on: T1, Nc1ncnc2c1ncn2[C@@H]1O[C@H](COP(=O)(O)OP(=O)(O)OP(=O)(O)O)[C@@H](O)[C@H]1O
T1 construct: codon-optimised synthetic gene in pET-23b (NdeI/XhoI), C-terminal His6 tag kept, expressed in E. coli BL21(DE3), heat-treated at 60 °C, HisTrap; approx. 27 kDa by SDS-PAGE
Test: purified protein
Type: biochemical, Thermus scotoductus
Conditions: ssRNA oligonucleotide (5'-R20-FAM-3') as co-substrate, 10 mM MgCl2, pH 8.0, 60 °C, ATP 0.1-50 µM

Ts-Clp1 (Thermus scotoductus SA-01) gave a Km of 2.5 µM.
